# Laboratory results reported in patent publication US20190002404.
# Tested on: purified, Flag-tagged recombinant PGAM1 (rPGAM1)
Substance,in vitro kinase assay (Y26 phosphorylation),in vitro kinase assay (tyrosine phosphorylation)
"active, recombinant FGFR1 (rFGFR1)","FGFR1 (FIG. 13B), JAK2 (FIG. 13C) and FLT3 (data not shown) directly phosphorylated PGAM1 at Y26 in vitro","active, recombinant FGFR1 (rFGFR1) directly phosphorylated purified, Flag-tagged recombinant PGAM1 (rPGAM1) at tyrosine residues"
"active, recombinant JAK2 (rJAK2)","FGFR1 (FIG. 13B), JAK2 (FIG. 13C) and FLT3 (data not shown) directly phosphorylated PGAM1 at Y26 in vitro",
FLT3,"FGFR1 (FIG. 13B), JAK2 (FIG. 13C) and FLT3 (data not shown) directly phosphorylated PGAM1 at Y26 in vitro",
